In the RNAGym collection of RNA variant scans (doi:10.1093/molbev/msab373):

B1: Azoarcus group I ribozyme (parent)
chain: GUGCCUUGCGCCGGGAAACCACGCAAGGGAUGGUGUCAAAUUCGGCGAAACCUAAGCGCCCGCCCGGGCGUAUGGCAACGCCGAGCCAAGCUUCGGCGCCUGCGCCGAUGAAGGUGUAGAGACUAGACGGCACCCACCUAAGGCAAACGCUAUGGUGAAGGCAUAGUCCAGGGAGUGGCGAAAGUCACACAAACCGG

Variants of: B1
Assay: reverse-splicing fitness (ratio to wild type); higher = more active; in vitro selection; Mg2+ level not given
Method in brief: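 An in vitro group I ribozyme library with randomized positions was T7-transcribed and gel-purified. In triplicate, 10 pmol RNA in EPPS pH 7.5 was reacted with 50 pmoles of a 30-nt RNA substrate for 1 h at 37 °C across several added MgCl2 levels (1–48 mM), then stopped with EDTA. Products were reverse transcribed from a substrate-complementary primer, PCR-amplified and sequenced (HiSeq 4000). Fitness is a variant's read proportion after selection over that before, normalised to wild type.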

Variant	reverse-splicing fitness
A120G C150U C169A U176A	0.0776
A120G C150U C169A U176G	0.00612
A120G C150U C169A U176C	0.126
A120U A145U C150A C169A U176C	0.00256
A120U A145U C150A C169A U176G	0.00156
A120U A145U C150A C169A U176A	0.0027
A120U C150U C169A U176G	0.00183
A120U C150U C169A U176C	0.00368
A120U C150U C169A U176A	0.0051
A120U C150A C169G U176G	0.00249
A120U C150A C169G U176C	0.0141
A120U C150A C169G U176A	0.0106
A120U A145U C150U C169G U176C	0.0637
A120U A145U C150U C169G U176G	0.00311
A120U A145U C150U C169G U176A	0.0285
A120U A145G C169U U176A	0.0927
A120U A145G C169U U176C	0.126
A120U A145G C169U U176G	0.0132
A120G A145U C169G U176G	0.0156
A120G A145U C169G U176C	0.264
A120G A145U C169G U176A	0.206
A120U A145C C169U U176C	0.1
A120U A145C C169U U176A	0.0854
A120U A145C C169U U176G	0.0133

Variant	reverse-splicing fitness
A120U A145C C169A U176G	0.00153
A120U A145C C169A U176A	0.00275
A120U A145C C169A U176C	0.00401
A120G C150U C169G U176A	0.157
A120G C150U C169G U176C	0.195
A120G C150U C169G U176G	0.00753
A120U A145C C169G U176G	0.00318
A120U A145C C169G U176A	0.0356
A120U A145C C169G U176C	0.0504
A120U A145G C150U C169U U176A	0.0753
A120U A145G C150U C169U U176C	0.108
A120U A145G C150U C169U U176G	0.00649
A120G C150A C169U U176A	0.0635
A120G C150A C169U U176C	0.0621
A120G C150A C169U U176G	0.00851
A120U A145G C150A C169U U176A	0.0235
A120U A145G C150A C169U U176C	0.032
A120U A145G C150A C169U U176G	0.00424
A120U C150A U176A	0.178
A120U C150A U176G	0.0831
A120U C150A U176C	0.172
A120U A145C C150A C169G U176C	0.0032
A120U A145C C150A C169G U176G	0.00221
A120U A145C C150A C169G U176A	0.00491

Variant	reverse-splicing fitness
A120G C150U	0.318
A120G C150A	0.0647
A120G C150G	0.0593
A120U A145G C150U C169A U176C	0.00469
A120U A145G C150U C169A U176A	0.00538
A120U A145G C150U C169A U176G	0.00258
A120U A145G C150G C169U	0.0537
A120U A145G C150G C169A	0.00998
A120U A145G C150G C169G	0.0353
A120U A145G C169G U176C	0.0902
A120U A145G C169G U176G	0.00281
A120U A145G C169G U176A	0.0414
A120U A145C C150G C169U U176A	0.00626
A120U A145C C150G C169U U176C	0.00753
A120U A145C C150G C169U U176G	0.00273
A120U A145C C150A U176C	0.061
A120U A145C C150A U176A	0.0864
A120U A145C C150A U176G	0.0538
A120U C150G C169G U176G	0.00248
A120U C150G C169G U176C	0.0024
A120U C150G C169G U176A	0.00487
A120U A145C C150G C169A U176G	0.00186
A120U A145C C150G C169A U176A	0.00247
A120U A145C C150G C169A U176C	0.00228

Variant	reverse-splicing fitness
A120U A145U C150A U176C	0.141
A120U A145U C150A U176A	0.151
A120U A145U C150A U176G	0.0665
A120U A145C C150U C169A	0.00515
A120U A145C C150U C169G	0.0691
A120U A145C C150U C169U	0.0928
A120U C150U C169U	0.203
A120U C150U C169G	0.15
A120U C150U C169A	0.0111
A120U A145G C150G C169G U176G	0.00354
A120U A145G C150G C169G U176A	0.00914
A120U A145G C150G C169G U176C	0.00575
A120G C150G C169U	0.0614
A120G C150G C169A	0.0439
A120G C150G C169G	0.0731
A120U A145C C150G U176A	0.132
A120U A145C C150G U176G	0.0278
A120U A145C C150G U176C	0.121
A120U A145U C150U C169U	0.197
A120U A145U C150U C169A	0.0103
A120U A145U C150U C169G	0.166
A120U A145C C150U C169U U176A	0.0309
A120U A145C C150U C169U U176C	0.0258
A120U A145C C150U C169U U176G	0.00705

Variant	reverse-splicing fitness
A120U A145U C150G C169A	0.00425
A120U A145U C150G C169U	0.0429
A120U A145U C150G C169G	0.0307
A120U A145G U176C	0.685
A120U A145G U176A	0.704
A120U A145G U176G	0.342
A120U C150G C169U U176C	0.0154
A120U C150G C169U U176A	0.00472
A120U C150G C169U U176G	0.00276
A120U C150G C169A U176C	0.00332
A120U C150G C169A U176A	0.00468
A120U C150G C169A U176G	0.00242
A120U A145G C150G U176G	0.013
A120U A145G C150G U176A	0.084
A120U A145G C150G U176C	0.146
A120U A145C U176G	0.36
A120U A145C U176A	0.634
A120U A145C U176C	0.452
A120U A145U C150G C169G U176G	0.00208
A120U A145U C150G C169G U176C	0.00304
A120U A145U C150G C169G U176A	0.00507
A120U C150U U176A	0.62
A120U C150U U176C	0.556
A120U C150U U176G	0.222

Variant	reverse-splicing fitness
A120U C169U U176C	0.139
A120U C169U U176G	0.0138
A120U C169U U176A	0.0922
A120G C150A C169G U176A	0.0606
A120G C150A C169G U176G	0.00584
A120G C150A C169G U176C	0.0784
A120U C169G U176A	0.0354
A120U C169G U176C	0.0915
A120U C169G U176G	0.00332
A120U A145G C150G C169U U176A	0.00909
A120U A145G C150G C169U U176G	0.0045
A120U A145G C150G C169U U176C	0.0205
A120U A145C C150A C169U U176C	0.00371
A120U A145C C150A C169U U176A	0.00859
A120U A145C C150A C169U U176G	0.00358
A120G A145U C150U U176G	0.0161
A120U A145G C150G C169A U176A	0.0107
A120U A145G C150G C169A U176C	0.00713
A120U A145G C150G C169A U176G	0.00464
A120U A145G C150U C169G U176A	0.0289
A120U A145G C150U C169G U176G	0.00281
A120U A145G C150U C169G U176C	0.063
A120G C150G C169G U176C	0.00733
A120G C150G C169G U176A	0.0132

Variant	reverse-splicing fitness
A120G C150G C169G U176G	0.00469
A120U A145U C150A C169U U176A	0.0134
A120U A145U C150A C169U U176G	0.00399
A120U A145U C150A C169U U176C	0.015
A120G A145U C169U	0.446
A120G A145U C169G	0.618
A120G A145U C169A	0.447
A120U A145C C150U U176G	0.167
A120U A145C C150U U176C	0.222
A120U A145C C150U U176A	0.328
A120U A145G C150U U176A	0.54
A120U A145G C150U U176C	0.532
A120U A145G C150U U176G	0.155
A120U A145U C150G C169A U176A	0.00344
A120U A145U C150G C169A U176G	0.00241
A120U A145U C150G C169A U176C	0.00335
A120U A145C C150A C169G	0.0132
A120U A145C C150A C169A	0.0021
A120U A145C C150A C169U	0.0192
A120U A145G C150U C169A	0.0163
A120U A145G C150U C169G	0.199
A120U A145G C150U C169U	0.256
A120U A145U C150G C169U U176G	0.00288
